From paper PMC5062964

T1: Ets-1ΔN331 (minimal ETS domain) (mouse (murine)?, UniProt P27577 331-440)
T1 sequence: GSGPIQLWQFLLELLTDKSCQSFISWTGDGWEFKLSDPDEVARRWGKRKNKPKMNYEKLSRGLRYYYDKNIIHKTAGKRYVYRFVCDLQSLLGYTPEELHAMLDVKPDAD


How the values were obtained:
[1] = biological target: PU.1ΔN167 (ETS domain) (mouse (murine), UniProt P17433 167-272); test: competitive fluorescence anisotropy
[2] = biological target: T1, Ets-1ΔN331 (minimal ETS domain); test: competitive fluorescence anisotropy

| Binder | Kd [1] [nM] | Kd [2] [nM] |
| --- | --- | --- |
| SC1 hemi-methylated, forward (5'-GGAA-3' strand) (dsDNA, 5-methyl-dC at strand 1 position 10 (CpG)) DNA 1: CGGCCAAGCCGGAAGTGAGTGCC DNA 2: GGCACTCACTTCCGGCTTGGCCG | 1.5 ± 0.9 |  |
| SC1 unmethylated (dsDNA) DNA 1: CGGCCAAGCCGGAAGTGAGTGCC DNA 2: GGCACTCACTTCCGGCTTGGCCG | 0.32 ± 0.17 | 0.14 ± 0.03 |
